Tests used:
[1] = biological target: αMβ heterodimer of HsIDH3 (α-Q139A with β) (human) (UniProt P50213); experiment: SEC-MALS; low concentration (1 mg/ml); Superdex 200 10/300 GL, 24 °C, 10 mM Hepes pH 7.4, 200 mM NaCl, 5 mM β-ME; N counts the units (heterodimers or heterotetramers) in the oligomer
[2] = biological target: αMβ heterodimer of HsIDH3 (α-Q139A with β) (human) (UniProt P50213); experiment: SEC-MALS; high concentration (10 mg/ml); Superdex 200 10/300 GL, 24 °C, 10 mM Hepes pH 7.4, 200 mM NaCl, 5 mM β-ME; N counts the units (heterodimers or heterotetramers) in the oligomer
[3] = biological target: αMβαMγ heterotetramer of HsIDH3 (α-Q139A in both heterodimers) (human) (UniProt P50213); experiment: SEC-MALS; low concentration (1 mg/ml); Superdex 200 10/300 GL, 24 °C, 10 mM Hepes pH 7.4, 200 mM NaCl, 5 mM β-ME; N counts the units (heterodimers or heterotetramers) in the oligomer
[4] = biological target: αMβαMγ heterotetramer of HsIDH3 (α-Q139A in both heterodimers) (human) (UniProt P50213); experiment: SEC-MALS; high concentration (10 mg/ml); Superdex 200 10/300 GL, 24 °C, 10 mM Hepes pH 7.4, 200 mM NaCl, 5 mM β-ME; N counts the units (heterodimers or heterotetramers) in the oligomer

stoichiometry N [1]	stoichiometry N [2]	stoichiometry N [3]	stoichiometry N [4]	Substance
2	2	–	–	αMβ heterodimer of HsIDH3 (α-Q139A with β) (from UniProt P50213 28-366; O43837 35-360) (complex)
–	–	2	2	αMβαMγ heterotetramer of HsIDH3 (α-Q139A in both heterodimers) (from UniProt P50213 28-366; O43837 35-360; P51553 40-393) (complex)
